The target in the experiment is recombinant soluble full-length human TDP-43 (transactive response DNA binding protein-43) (Homo sapiens (Human)., UniProt Q13148). Kind of experiment: SPR. In general terms: Surface plasmon resonance follows binding to a sensor surface in real time, without labels.
Sequence of recombinant soluble full-length human TDP-43 (transactive response DNA binding protein-43) (Q13148 whole entry): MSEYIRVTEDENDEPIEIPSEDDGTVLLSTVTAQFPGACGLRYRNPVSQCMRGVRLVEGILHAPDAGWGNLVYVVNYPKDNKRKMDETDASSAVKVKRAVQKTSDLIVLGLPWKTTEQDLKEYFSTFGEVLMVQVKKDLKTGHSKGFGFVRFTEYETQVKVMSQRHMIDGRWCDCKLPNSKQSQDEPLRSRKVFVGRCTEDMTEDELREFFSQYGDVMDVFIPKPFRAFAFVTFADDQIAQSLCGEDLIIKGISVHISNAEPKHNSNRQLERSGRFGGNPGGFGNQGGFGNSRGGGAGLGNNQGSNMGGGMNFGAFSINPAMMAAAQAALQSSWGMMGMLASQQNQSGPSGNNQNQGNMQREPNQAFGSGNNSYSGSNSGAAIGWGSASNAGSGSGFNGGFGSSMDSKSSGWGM

B1: ACI-5891 mouse IgG2a mAb produced with the bicistronic IRES-LC/HC expression cassette (antibody, V domains shown)
VH: EVQLQQSGPELVKPGASVKISCKTSGFTFTEYSMHWVKQSHGKSLEWIGGINPNNGGTSYNQKFKGKATLTVDKSSSTAYMELRSLTSEDSAVYYCARESWGQGTTLTVSS
VL: not shown
As a reminder, the Kd is a measure of binding affinity in units of concentration. For B1, the Kd stood at 0.09 nM.

B2: ACI-5891 human IgG1 chimeric mAb produced with the bicistronic IRES-LC/HC expression cassette (antibody, V domains shown)
VH: B1 VH
VL: not shown
In the case of B2, the Kd is 0.092 nM.

B3: ACI-5891 human IgG1 chimeric reference mAb, conventionally produced (antibody, V domains shown)
VH: B1 VH
VL: not shown
B3: the dissociation constant (Kd) came to 0.087 nM.

B4: anti-human TDP-43 mAb ACI-5891, mouse IgG2a, conventionally produced reference mAb (antibody, V domains shown)
VH: B1 VH
VL: not shown
B4: the dissociation constant (Kd) is 0.092 nM.

Source of the values: publication PMC12432895 (Molecular Therapy, 2025).
